The values below come from the Immune Epitope Database (IEDB).

Holding throughout (test): IEDB peptide-MHC binding, purified MHC/competitive/fluorescence; filed as Kd, often an IC50 or EC50 that approximates it; ≥ and ≤ were set here for values at or beyond the usual limits of such assays
What all share (conditions): source organism: Entamoeba histolytica HM-1:IMSS

Assay [1] deals with HLA-A*02:01.
The target in assay [2] is HLA-B*18:01.
The target in assay [3] is HLA-A*02:19.
The target in assay [4] is HLA-A*66:01.
Assay [5] addresses HLA-A*24:03.
In assay [6] the target is HLA-A*29:02.
Assay [7] addresses HLA-A*30:02.
The target in assay [8] is HLA-A*11:01.
Assay [9] addresses HLA-B*46:01.
Assay [10] addresses HLA-A*02:16.
The target of assay [11] is HLA-A*02:03.
The target in assay [12] is HLA-B*57:01.
The target in assay [13] is HLA-A*02:11.
For assay [14], the target named is HLA-A*23:01.
For assay [15], the target named is HLA-B*07:02.
For assay [16], the target named is HLA-B*15:17.
For assay [17], the target named is HLA-B*39:01.
For assay [18], the target named is HLA-B*27:05.
The target of assay [19] is HLA-B*58:01.
Assay [20] has as its target HLA-A*30:01.
Assay [21] has as its target HLA-B*53:01.
For assay [22], the target named is HLA-B*27:03.
Assay [23] deals with HLA-B*44:02.
The target in assay [24] is HLA-B*15:01.

EVRKAIEFV: the Kd in assay [1] was no less than 20 µM; in assay [2], no less than 20 µM; in [3] it was no less than 20 µM; in assay [4], 0.279 µM; in assay [5] it was no less than 20 µM; in [6], no less than 20 µM. The Kd was no less than 5 µM in assay [7]; no less than 5 µM in [8]; no less than 20 µM in [9]; no less than 20 µM in [10]; no less than 20 µM in [11]; no less than 20 µM in [12]. Besides, the Kd is no less than 20 µM in assay [13]; 1.3 µM in [14]; no less than 5 µM in assay [15]; no less than 20 µM in [16]; no less than 20 µM in [17]; no less than 5 µM in [18]. In addition, the Kd in [19] was no less than 5 µM; in assay [20], no less than 5 µM; in assay [21], no less than 5 µM; in [22], no less than 20 µM; in assay [23] it was no less than 5 µM; in assay [24], no less than 20 µM.

The Kd is a measure of binding affinity in units of concentration. A low value points to tighter binding.
